Results: IntAct's records for PubMed 16720724

B1: Activin receptor type-1B (Homo sapiens), P36896 (parent)
chain: MAESAGASSFFPLVVLLLAGSGGSGPRGVQALLCACTSCLQANYTCETDGACMVSIFNLDGMEHHVRTCIPKVELVPAGKPFYCLSSEDLRNTHCCYTDYCNRIDLRVPSGHLKEPEHPSMWGPVELVGIIAGPVFLLFLIIIIVFLVINYHQRVYHNRQRLDMEDPSCEMCLSKDKTLQDLVYDLSTSGSGSGLPLFVQRTVARTIVLQEIIGKGRFGEVWRGRWRGGDVAVKIFSSREERSWFREAEIYQTVMLRHENILGFIAADNKDNGTWTQLWLVSDYHEHGSLFDYLNRYTVTIEGMIKLALSAASGLAHLHMEIVGTQGKPGIAHRDLKSKNILVKKNGMCAIADLGLAVRHDAVTDTIDIAPNQRVGTKRYMAPEVLDETINMKHFDSFKCADIYALGLVYWEIARRCNSGGVHEEYQLPYYDLVPSDPSIEEMRKVVCDQKLRPNIPNWWQSYEALRVMGKMMRECWYANGAARLTALRIKKTLSQLSVQEDVKI

Variants of: B1
Settings: with smad7_human SMAD7, O15105
Chain of smad7_human SMAD7, O15105 (O15105 whole entry): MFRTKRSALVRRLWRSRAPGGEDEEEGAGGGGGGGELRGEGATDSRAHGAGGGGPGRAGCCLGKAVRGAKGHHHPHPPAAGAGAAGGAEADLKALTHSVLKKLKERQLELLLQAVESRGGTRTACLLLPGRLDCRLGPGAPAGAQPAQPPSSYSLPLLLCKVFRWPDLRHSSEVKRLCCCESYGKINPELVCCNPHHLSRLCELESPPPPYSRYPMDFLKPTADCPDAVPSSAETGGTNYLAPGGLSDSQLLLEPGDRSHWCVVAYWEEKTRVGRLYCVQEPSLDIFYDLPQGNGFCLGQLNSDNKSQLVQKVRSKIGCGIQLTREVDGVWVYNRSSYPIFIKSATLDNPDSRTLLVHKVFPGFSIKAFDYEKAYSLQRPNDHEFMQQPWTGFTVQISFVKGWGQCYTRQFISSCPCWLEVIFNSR

Variant	effect of a mutation on the interaction
T206E	increasing interaction
